The target in experiment [1] is Plexin-B1 ICD R1900E.R1904E (human) (UniProt O43157).
The target in experiment [2] is Plexin-B1 ICD E1530R.E1533R (human) (UniProt O43157).
The target in experiment [3] is Plexin-B1 ICD FL [res. 1511-2135] (human, UniProt O43157 1511-2135). In words: MST.
In experiment [4] the target is Plexin-B1 ICD E1530R.E1533R (human, UniProt O43157 1511-2135, E1530R | E1533R). The experiment in a line: MST.
In experiment [5] the target is Plexin-B1 ICD R1900E.R1904E (human, UniProt O43157 1511-2135, R1900E | R1904E). In words: MST.
Plexin-B1 ICD R1900E.R1904E, sequence (O43157 1511-2135 R1900E/R1904E): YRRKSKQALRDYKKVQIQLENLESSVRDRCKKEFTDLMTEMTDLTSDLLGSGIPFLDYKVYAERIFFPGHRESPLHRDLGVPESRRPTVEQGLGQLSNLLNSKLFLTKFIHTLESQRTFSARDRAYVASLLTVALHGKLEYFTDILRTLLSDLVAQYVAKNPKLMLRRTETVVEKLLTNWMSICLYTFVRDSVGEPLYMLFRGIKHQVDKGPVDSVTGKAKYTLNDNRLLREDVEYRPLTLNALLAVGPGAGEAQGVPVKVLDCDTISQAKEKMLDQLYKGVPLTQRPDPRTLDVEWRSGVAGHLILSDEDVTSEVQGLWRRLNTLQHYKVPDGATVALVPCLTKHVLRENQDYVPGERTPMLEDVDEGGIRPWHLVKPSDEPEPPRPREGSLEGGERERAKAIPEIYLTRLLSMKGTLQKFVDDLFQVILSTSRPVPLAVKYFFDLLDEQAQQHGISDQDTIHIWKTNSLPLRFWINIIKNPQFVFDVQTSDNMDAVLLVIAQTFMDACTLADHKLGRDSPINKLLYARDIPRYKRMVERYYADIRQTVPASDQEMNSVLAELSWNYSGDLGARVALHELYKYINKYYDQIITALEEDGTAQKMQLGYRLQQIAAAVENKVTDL

A value given as a limit tells only on which side of the number the result lay.

What is called Kd is a measure of binding affinity in units of concentration. High values mean lower affinity, low ones higher affinity.

Plexin-B1 ICD R1900E.R1904E (human), sequence (O43157 1511-2135 R1900E/R1904E): as above
Plexin-B1 ICD FL [res. 1511-2135], sequence (O43157 1511-2135): as the sequence (O43157 1511-2135 R1900E/R1904E) above, with E390R, E394R counted along it
Plexin-B1 ICD E1530R.E1533R (human), sequence (O43157 1511-2135 E1530R/E1533R): as the sequence (O43157 1511-2135 R1900E/R1904E) above, with E20R, E23R, E390R, E394R counted along it
Plexin-B1 ICD E1530R.E1533R, sequence (O43157 1511-2135 E1530R/E1533R): as the sequence (O43157 1511-2135 R1900E/R1904E) above, with E20R, E23R, E390R, E394R counted along it

Turning to “Human Rap1b wild type [res. 1 to 184] (from UniProt P61224 1-184) (enzyme)”, the loss of GAP activity towards Rap1b against wild type Plexin-B1 ICR in experiment [1] and in experiment [2] was > 50% each time.

B1: Rap1b G12V (constitutive active mutant) [res. 1 to 184] (enzyme, human, UniProt P61224 1-184, looked up)
chain: MREYKLVVLGSVGVGKSALTVQFVQGIFVEKYDPTIEDSYRKQVEVDAQQCMLEILDTAGTEQFTAMRDLYMKNGQGFALVYSITAQSTFNDLQDLREQILRVKDTDDVPMILVGNKCDLEDERVVGKEQGQNLARQWNNCAFLESSAKSKINVNEIFYDLVRQINRKTPVPGKARKKSSCQLL
B1: the binding result in experiment [3] is listed as “binds”. Also, the Kd in experiment [4] and in experiment [5] was > 100 µM each time.

The record behind these values is publication PMC7769916 (Cellular and molecular life sciences : CMLS, 2020).
